US20180127487A1 (Sanofi, published 2018)
Where two headings read alike, the source gives them in different places.

T1: recombinant mouse FcRn (mouse, UniProt Q61559 22-297; P01887 21-119)
T1 sequence 1: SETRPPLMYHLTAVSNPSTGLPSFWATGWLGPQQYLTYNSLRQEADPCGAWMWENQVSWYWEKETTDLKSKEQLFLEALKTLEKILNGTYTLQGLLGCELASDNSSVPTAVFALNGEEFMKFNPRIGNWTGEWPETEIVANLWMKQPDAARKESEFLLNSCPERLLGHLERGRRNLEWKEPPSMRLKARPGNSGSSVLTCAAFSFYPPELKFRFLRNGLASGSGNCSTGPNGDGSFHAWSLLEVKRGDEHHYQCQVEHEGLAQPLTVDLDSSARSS
T1 sequence 2: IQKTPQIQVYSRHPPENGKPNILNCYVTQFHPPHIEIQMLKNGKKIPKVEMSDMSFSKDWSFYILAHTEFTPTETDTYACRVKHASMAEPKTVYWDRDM


Experiments:
[1] = molecular target: T2, CHIKV Caribbean strain, Asian lineage (envelope protein E2 on virus) (Chikungunya virus); test: cell-based or functional assay
[2] = molecular target: T3, CHIKV La Reunion (LR) strain, ECSA lineage (envelope protein E2 on virus) (Chikungunya virus); test: cell-based or functional assay
[3] = molecular target: T4, CHIKV 37997 strain, West African lineage (envelope protein E2 on virus) (Chikungunya virus); test: cell-based or functional assay
[4] = molecular target: T2, CHIKV Caribbean strain, Asian lineage …; test: cell-based or functional assay; remark: listed apart in the source
[5] = molecular target: T3, CHIKV La Reunion (LR) strain, ECSA …; test: cell-based or functional assay; remark: listed apart in the source
[6] = molecular target: T4, CHIKV 37997 strain, West African …; test: cell-based or functional assay; remark: listed apart in the source
recombinant human FcRn [7] = molecular target: T5, recombinant human FcRn (human, UniProt P55899 24-297; P61769 21-119); test: SPR, human FcRn immobilised; relative to mAb1
T5 construct: also called human FcRn receptor
T5 sequence (P55899 24-297 limits assumed, chain 1 of 2): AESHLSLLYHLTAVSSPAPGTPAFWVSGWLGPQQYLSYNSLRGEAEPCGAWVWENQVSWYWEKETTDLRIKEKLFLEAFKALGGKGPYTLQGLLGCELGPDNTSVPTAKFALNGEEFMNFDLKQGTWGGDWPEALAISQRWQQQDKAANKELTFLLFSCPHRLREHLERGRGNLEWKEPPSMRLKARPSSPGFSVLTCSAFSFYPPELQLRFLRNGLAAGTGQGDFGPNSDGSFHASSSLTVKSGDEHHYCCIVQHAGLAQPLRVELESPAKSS
T5 sequence (P61769 21-119 limits assumed, chain 2 of 2): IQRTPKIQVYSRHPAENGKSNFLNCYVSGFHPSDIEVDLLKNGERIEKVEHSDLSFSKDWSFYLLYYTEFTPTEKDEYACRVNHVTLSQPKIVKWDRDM

recombinant mouse FcRn [8] = molecular target: T1, recombinant mouse FcRn; test: SPR, mouse FcRn immobilised; relative to mAb1
recombinant human FcRn [9] = molecular target: T5, recombinant human FcRn; test: SPR (Biacore T200), human FcRn immobilised on CM5 chip
recombinant mouse FcRn [10] = molecular target: T1, recombinant mouse FcRn; test: SPR (Biacore T200), mouse FcRn immobilised on CM5 chip
Antigen (E2) [11] = molecular target: Antigen (E2) (Chikungunya virus); test: SPR (Biacore T200), His-tagged antigen captured by anti-His antibody, 1:1 model
[12] = molecular target: T6, Recombinant human HPC4-tagged FcγRIII-F158 (human, UniProt P08637 17-208); test: SPR (Biacore 3000), HPC4-tagged FcγRIII-F158 captured on anti-HPC4 CM5 chip, antibody injected 2 min, in duplicate; concentration (900, 300 or 100 nM in the methods) not printed on the sheet
T6 construct: also called FcγRIIIaF158; not shown: HPC4 tag
T6 sequence (P08637 17-208): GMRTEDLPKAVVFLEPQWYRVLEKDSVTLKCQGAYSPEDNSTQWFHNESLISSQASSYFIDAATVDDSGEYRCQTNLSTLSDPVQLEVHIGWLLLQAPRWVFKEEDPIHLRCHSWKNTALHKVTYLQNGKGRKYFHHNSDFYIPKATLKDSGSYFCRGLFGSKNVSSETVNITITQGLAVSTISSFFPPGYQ

[13] = molecular target: T7, Recombinant human HPC4-tagged FcγRIIIa-V158 (human, UniProt P08637 17-208); test: SPR (Biacore 3000), HPC4-tagged FcγRIIIa-V158 captured on anti-HPC4 CM5 chip, antibody injected 2 min, in duplicate; concentration (900, 300 or 100 nM in the methods) not printed on the sheet
T7 construct: Valine at 158 is a polymorphism, named without an old residue; also called Val158; not shown: HPC4 tag
T7 sequence (P08637 17-208 F176V): as the sequence (P08637 17-208) above, with F160V counted along it

[14] = molecular target: T8, His-tagged CHIKV E2 LR2006 (Chikungunya virus strain LR2006, UniProt Q8JUX5 326-1220); test: SPR, His-tagged antigen captured
T8 construct: also called CHIKV pE2-E1 antigen derived from CHIKV strain LR2006; pE2-E1 target

[15] = molecular target: T9, His-tagged CHIKV E2 SL15649 (Chikungunya virus strain SL15649, UniProt Q8JUX5 326-1220); test: SPR, His-tagged antigen captured
T9 construct: also called CHIKV pE2-E1 antigen derived from CHIKV strain SL15649; pE2-E1 target

recombinant human FcRn [16] = molecular target: T5, recombinant human FcRn; test: SPR, human FcRn immobilised; relative to mAb2
recombinant mouse FcRn [17] = molecular target: T1, recombinant mouse FcRn; test: SPR, mouse FcRn immobilised; relative to mAb2
recombinant human FcRn [18] = molecular target: T5, recombinant human FcRn; test: SPR (Biacore T200), human FcRn immobilised on CM5 chip; remark: listed apart in the source
recombinant mouse FcRn [19] = molecular target: T1, recombinant mouse FcRn; test: SPR (Biacore T200), mouse FcRn immobilised on CM5 chip; remark: listed apart in the source
Antigen (E2) [20] = molecular target: Antigen (E2) (Chikungunya virus); test: SPR (Biacore T200), His-tagged antigen captured by anti-His antibody, 1:1 model; remark: listed apart in the source
[21] = molecular target: T6, Recombinant human HPC4-tagged …; test: SPR (Biacore 3000), HPC4-tagged FcγRIII-F158 captured on anti-HPC4 CM5 chip, antibody injected 2 min, in duplicate; concentration (900, 300 or 100 nM in the methods) not printed on the sheet; remark: listed apart in the source
[22] = molecular target: T7, Recombinant human HPC4-tagged …; test: SPR (Biacore 3000), HPC4-tagged FcγRIIIa-V158 captured on anti-HPC4 CM5 chip, antibody injected 2 min, in duplicate; concentration (900, 300 or 100 nM in the methods) not printed on the sheet; remark: listed apart in the source
[23] = molecular target: T8, His-tagged CHIKV E2 LR2006; test: SPR, His-tagged antigen captured (example 3, FIG. 5)
[24] = molecular target: T9, His-tagged CHIKV E2 SL15649; test: as above

| Binder | EC50, plaque reduction neutralization [1] [ng/mL] | EC50, plaque reduction neutralization [2] [ng/mL] | EC50, plaque reduction neutralization [3] [ng/mL] | In vitro neutralization - EC50 (ng/ml), plaque reduction assay on Vero cells [4] [ng/mL] | In vitro neutralization - EC50 (ng/ml), plaque reduction assay on Vero cells [5] [ng/mL] | In vitro neutralization - EC50 (ng/ml), plaque reduction assay on Vero cells [6] [ng/mL] | Affinity Increase (fold) (recombinant human FcRn [7]) | Affinity Increase (fold) (recombinant mouse FcRn [8]) | Kd (recombinant human FcRn [9]) [nM] | Kd (recombinant mouse FcRn [10]) [nM] | Kd (Antigen (E2) [11]) [nM] | binding result [12] | binding result [13] | Affinity Increase (fold) (recombinant human FcRn [16]) | Affinity Increase (fold) (recombinant mouse FcRn [17]) | Kd (recombinant human FcRn [18]) [nM] | Kd (recombinant mouse FcRn [19]) [nM] | Kd (Antigen (E2) [20]) [nM] | binding result [21] | binding result [22] | also measured |
| --- | --- | --- | --- | --- | --- | --- | --- | --- | --- | --- | --- | --- | --- | --- | --- | --- | --- | --- | --- | --- | --- |
| mAb1 (antibody, also called parent antibody mAb1) heavy: not shown light: QAVVTQPPSVSGAPGQRVTISCTGSSSNIGADYNVHWYQLLPGTAPKLLIYGNTNRPSGVPDRFSGSKSGTSASLAITGLQAEDEADYYCQSYDSSLSASVFGGGTKLTVLGQPKAAPSVTLFPPSSEELQANKATLVCLISDFYPGAVTVAWKADSSPVKAGVETTTPSKQSNNKYAASSYLSLTPEQWKSHRSYSCQVTHEGSTVEKTVAPTECS | < 10 | < 10 | < 10 | 7.6 | 3.9 | 4.8 | 1 | 1 | 348 | 20 | 0.13 | binds | binds | – | – | – | – | – | – | – | – |
| mAb7 (antibody, also called mAb1LS) heavy: not shown light: QAVVTQPPSVSGAPGQRVTISCTGSSSNIGADYNVHWYQLLPGTAPKLLIYGNTNRPSGVPDRFSGSKSGTSASLAITGLQAEDEADYYCQSYDSSLSASVFGGGTKLTVLGQPKAAPSVTLFPPSSEELQANKATLVCLISDFYPGAVTVAWKADSSPVKAGVETTTPSKQSNNKYAASSYLSLTPEQWKSHRSYSCQVTHEGSTVEKTVAPTECS | < 1 | < 1 | < 1 | 0.6 | 0.3 | 0.2 | 23.8 | 3.4 | 15 | 5.9 | 0.17 | binds | binds | – | – | – | – | – | – | – | – |
| mAb9 (antibody, also called mAb2LS) heavy: not shown light: QAVVTQSPSSLPASVGDRVTITCRASQDIRNNLGWYQQKPGKAPERLIYGTSNLQSGVPSRFSGSGSGTEFTLTISSLQPEDFATYYCLQHNSYPPTFGRGTKVEIKRTVAAPSVFIFPPSDEQLKSGTASVVCLLNNFYPREAKVQWKVDNALQSGNSQESVTEQDSKDSTYSLSSTLTLSKADYEKHKVYACEVTHQGLSSPVTKSFNRGEC | – | – | – | – | – | – | – | – | – | – | – | – | – | 16.6 | 3 | 20 | 7.5 | 0.25 | binds | binds | binding result [14]: binds; binding result [15]: binds |
| mAb13 (antibody, also called mAb2N108QYTE) heavy: QVQLVQSGAEVKKPGASVKVSCKVSGYILSKLSVHWVRQAPGKGLEWMGGSEREDGETVYAQKFQGRISLTEDTSIETAYMELSSLSSEDTAVYYCATGGFWSMIGGQGVDYWGQGTLVTVSSASTKGPSVFPLAPSSKSTSGGTAALGCLVKDYFPEPVTVSWNSGALTSGVHTFPAVLQSSGLYSLSSVVTVPSSSLGTQTYICNVNHKPSNTKVDKKVEPKSCDKTHTCPPCPAPELLGGPSVFLFPPKPKDTLYITREPEVTCVVVDVSHEDPEVKFNWYVDGVEVHNAKTKPREEQYNSTYRVVSVLTVLHQDWLNGKEYKCKVSNKALPAPIEKTISKAKGQPREPQVYTLPPSRDELTKNQVSLTCLVKGFYPSDIAVEWESNGQPENNYKTTPPVLDSDGSFFLYSKLTVDKSRWQQGNVFSCSVMHEALHNHYTQKSLSLSPG light: QAVVTQSPSSLPASVGDRVTITCRASQDIRNNLGWYQQKPGKAPERLIYGTSNLQSGVPSRFSGSGSGTEFTLTISSLQPEDFATYYCLQHNSYPPTFGRGTKVEIKRTVAAPSVFIFPPSDEQLKSGTASVVCLLNNFYPREAKVQWKVDNALQSGNSQESVTEQDSKDSTYSLSSTLTLSKADYEKHKVYACEVTHQGLSSPVTKSFNRGEC | – | – | – | – | – | – | – | – | – | – | – | – | – | 13.7 | 13.7 | 24 | 1.6 | – | binds | binds | binding result [23]: binds; binding result [24]: binds |
| mAb14 (antibody, also called mAb2N108QLS) heavy: not shown light: QAVVTQSPSSLPASVGDRVTITCRASQDIRNNLGWYQQKPGKAPERLIYGTSNLQSGVPSRFSGSGSGTEFTLTISSLQPEDFATYYCLQHNSYPPTFGRGTKVEIKRTVAAPSVFIFPPSDEQLKSGTASVVCLLNNFYPREAKVQWKVDNALQSGNSQESVTEQDSKDSTYSLSSTLTLSKADYEKHKVYACEVTHQGLSSPVTKSFNRGEC | – | – | – | – | – | – | – | – | – | – | – | – | – | 18.2 | 3.6 | 18 | 6.2 | 0.12 | binds | binds | binding result [23]: binds; binding result [24]: binds |
